Experimental data from paper PMC6291162.

Assays:
[1] = biological target: proprietary Ral effector protein of the RalA G-LISA Activation Assay Kit; experiment: ELISA-based assay; conditions: Absorbances normalized to a no template control (NTC); mean of one experiment performed in triplicate; parent: 1.163
[2] = biological target: proprietary Ral effector protein of the RalA G-LISA Activation Assay Kit; experiment: ELISA; RalA G-LISA Activation Assay Kit (colorimetric); Ral effector protein on the Ral-BP binding plate; purified RALA incubated in the presence or absence of 15 uM GTP for 1.5 h at 25 °C, then 23.75 ng of RALA/GTP mixture applied; absorbances normalized to a no template control; one experiment in triplicate

## wild-type RALA (RAS-like small GTPase), 6-His-tagged recombinant protein (from UniProt P11233) S157A
[1]
  response: 1.83 absorbance

## wild-type RALA (RAS-like small GTPase), 6-His-tagged recombinant protein (from UniProt P11233) V25L
[1]
  response: 0.286 absorbance

## wild-type RALA (RAS-like small GTPase), 6-His-tagged recombinant protein (from UniProt P11233) D130G
[1]
  response: 0.281 absorbance

## wild-type RALA (RAS-like small GTPase), 6-His-tagged recombinant protein (from UniProt P11233) V25M
[1]
  response: 0.649 absorbance

B1: RALA G23D, 6-His-tagged recombinant protein (natural protein)
chain: MAANKPKGQNSLALHKVIMVGSDGVGKSALTLQFMYDEFVEDYEPTKADSYRKKVVLDGEEVQIDILDTAGQEDYAAIRDNYFRSGEGFLCVFSITEMESFAATADFREQILRVKEDENVPFLLVGNKSDLEDKRQVSVEEAKNRAEQWNVNYVETSAKTRANVDKVFFDLMREIRARKMEDSKEKNGKKKRKSLAKRIRERCCIL
[2]
  fold change of binding against wild type: 2 fold
